According to publication PMC9783675:

Target: recombinant Nodulin 22 (PvNod22) with a 6xHis-tag at the N-terminus, lacking the ER-signal peptide (Phaseolus vulgaris L.)
Assay: ITC; dilution experiment: PvNod22 injected (10 x 2 µL) into buffer, PBS pH 7.5, 25 °C; agglomerates to smaller oligomers; apparent
Parameters: dH (of dissociation): unit not given here

recombinant Nodulin 22 (PvNod22) with a 6xHis-tag at the N-terminus, lacking the ER-signal peptide (natural protein)
Kd: 9.13 µM | dH (of dissociation): -49600
